Reference: the supplement of paper PMC9170038

Columns and labels:
MS2 coat protein [1] = experiment: apparent KD of MS2 coat protein; higher = weaker reporter binding; conditions: Eterna round: R101
Method: (§1)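 RNA-MaP: designed FMN/MS2 RNA switches (84 nt design region) are transcribed on-chip within common flanks and titrated with SNAP-549-labelled MS2 coat protein (about 1-3000 nM) in 100 mM Tris pH 7.5, 80 mM KCl, 4 mM MgCl2, without or with 200 uM FMN. Median apparent KD per design; activation ratio = KD,OFF / KD,ON.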

MS2 coat protein [2] = experiment: apparent KD of MS2 coat protein; designed switch direction (-1 OFF switch, 1 ON switch): -1; higher = weaker reporter binding; conditions: Eterna round: R98
Method: as §1

MS2 coat protein [3] = experiment: apparent KD of MS2 coat protein; designed switch direction (-1 OFF switch, 1 ON switch): 1; higher = weaker reporter binding; conditions: Eterna round: R98
Method: as §1

Sequence | apparent KD of MS2 coat protein (MS2 coat protein [1]; input ligand: FMN 200 uM) [nM] | apparent KD of MS2 coat protein (MS2 coat protein [1]; input ligand: none) [nM] | apparent KD of MS2 coat protein (MS2 coat protein [2]; input ligand: FMN 200 uM) [nM] | apparent KD of MS2 coat protein (MS2 coat protein [2]; input ligand: none) [nM] | other results
GUCAGCUCGUGAGGAUAUACAUCACUGCUUCGGCAGUGUAUUAAGAUCACAUGAGGAUCACCCAUGUAGAAGGCACGAGCUGAU [#SameSwitchNG2InvertedNG3 NG2 A1] (puzzle (switch architecture): Exclusion NG 2) | 201 | 14.6 | – | – | –
GGAGAUACAUGAGGAUCACCCAUGUAGGAUAUCGGGCCCAUAUACGGCGAAAGCCGUAUAUGGGCCGAGAAGGGCGUACACACC [#LOL-7] (puzzle (switch architecture): Small Loop Exclusion NG 3) | 7.96 | 8.78 | – | – | –
GGAGAUACAUGAGGAUCACCCAUGUAGGAUAUAUAGUAUAUAUAUAUCGAAAGAUAUAUAUAUAUAUAGAAGGGCGUGCACACC [#LOL-16] (puzzle (switch architecture): Small Loop Exclusion NG 3) | 6.74 | 8.34 | – | – | –
UUGGACGUCGUAGGAUAUGUAGGAUAUUCCUACAUGAGGAUCACCCAUGUUUACAUGGAAGAAGGACAGAAGGACGAUGUCCAU (puzzle (switch architecture): Same State NG 2) | 5.73 | 572 | – | – | –
UGCUAACUGUAGAAGGGUGACAUGAGGAUCACCCAUGUGCACGCGCGAUUUACGGCGCGCGUGCCACAGGAUAUACAGUUUAGU [Atquar] (puzzle (switch architecture): Inverted Same State NG 2) | 34.3 | 32.7 | – | – | –
GGCAGCCUUCAGAAGGGAGUGCGAUAAUCGCACUCAGGAUAUGAGGAUCACCCAUAUCAAGCUGCCACUGAGGCAAAGCCUCAG [#SharedSequence - IEx NG 2-1] (puzzle (switch architecture): Inverted Exclusion NG 1) | 12.1 | 10.8 | – | – | –
AGGUAUACUUAGAAGGCGUGGACGAAACGUCCACGAGGAUAUGAGGAUCACCCAUAUCAGGUCAGCCUGCAAAGCAGGCUGACC [#SharedSequence - IExNG1: 8-2] (puzzle (switch architecture): Inverted Exclusion NG 1) | 43.9 | 12.2 | – | – | –
AAAUUUAACGAAGGAUAUGCUGACAUGAGGAUCACCCAUGUGUGCCUUGUGUUGCUGCCUCGGGAGCAGAAGGUCGUAUACAUA [Ex NG2 #11] | – | – | 613 | 454 | –
AGACUCAGAUGGUGCCAGCUUGCACAUGAGGAUCACCCAUGUCAGGAUAUCUUCGCUCCGAGAGAAGAGAAGGGACAAGAAUUU [Soedon] | – | – | 234 | 79.4 | –
AAAUAACUUGAAGGAUAUCAGGGUGCACCUCAGUAAAACUGAGGUGCACCCUGAGAAGGUCGAGGAUCACCCGAUCUAAAUAAA [#SharedSequence SLExNG1: 3-2] (puzzle (switch architecture): Small Loop Exclusion NG 1) | 13.5 | 9.19 | – | – | –
GCACUGGAUGUAGGAUAUCAGGACGAUAAGUCCUGAGAAGGACAUGAGGAUCACCCAUGUGAUAAUACCAGUGCAAAUAAUAUA [Denovo Exng1 26] | – | – | 119 | 19.5 | –
GUGAGGCAUCUACACGCUCGGGCCGAGGAUAUACAUGAGGAUCACCCAUGUAACAGUGCGGUCAUGUAGAAGGCGGCUAAAUUA [Rianrare] (puzzle (switch architecture): Small Loop Exclusion NG 3) | 42.3 | 11.1 | – | – | –
CAACUGGCACAGAAGGGUGACAUGAGGAUCACCCAUGUAGCGUGGCACUCAGGAGGAGCCACGCCACAGGAUAUGUGCCGACAC [Beisreriar] (puzzle (switch architecture): Inverted Same State NG 2) | 45.7 | 29.9 | – | – | –
GACGAAAUCUUAGGAUAUCGAGUGGAAUACACUCGAGAAGGAAGAUAUACCUGAGGAUCACCCAGGUAAAACUGGACGUCAAUA [Same State NG1 - A3C, U17G Submission 8H U68A, U7A] | – | – | – | – | apparent KD of MS2 coat protein (MS2 coat protein [3]; input ligand: FMN 200 uM): 26.6 nM; apparent KD of MS2 coat protein (MS2 coat protein [3]; input ligand: none): 29.8 nM
CCGACGCCUCAGAAGGCACUCGCAUAAUGCGAGUGAGGAUAUGAGGAUCACCCAUAUCAACGUCGGAGUCACCGAAACGGUGAC [#SharedSequence - IEx NG 1-2] (puzzle (switch architecture): Inverted Exclusion NG 1) | 78.1 | – | – | – | –
ACAUGGAAUCGAGGAUAUGACGCGGAAACGAAGUCAGAAGGCGAAAAUUUAACUCGAUAAUACAUGAGGAUCACCCAUGUAAUU [AK-NGROCr2-ExNG1-3] | – | – | 24.6 | 19.7 | –
UAUAUAAUUAAGAGCUGGAAAAUCACAUGAGGAUCACCCAUGUAGGAUAUCAGCACGAUAAGUGCUGAGAAGGACUACCAGCUC [Denovo 79] | – | – | 15.8 | 20 | –
AAAACAUGAGGAUCACCCAUGUAAAGAUCGGUUAUUAAAAGUGAGGAUAUACAAAAUUUUAUAUAGUAGAAGGCACUGGGUACA [JR_SSNG3_Sub001] | – | – | – | – | apparent KD of MS2 coat protein (MS2 coat protein [3]; input ligand: FMN 200 uM): 28.9 nM; apparent KD of MS2 coat protein (MS2 coat protein [3]; input ligand: none): 27.8 nM
UCGAACGGAAACAAAGUCGAUAGACAUGAGGAUCACCCAUGUCAGGAUAUGCCUACUAAAAGUAGGCAGAAGGGACGCGUUCGA [Contusion 7 - Jieux - Exclusion NG 3] | – | – | 18 | 20.8 | –
AAAUAACUUGAAGGAUAUGACCCUCGAGGUGACUAAAAGUCACCUCGAGGGUCAGAAGGUCGAGGAUCACCCGAUCUAAAUAAA [#SharedSequence SLExNG1: 3-1] (puzzle (switch architecture): Small Loop Exclusion NG 1) | 24.6 | 10.2 | – | – | –
UCAUACAUGACAUGACAUGACAUGAGGAUCACCCAUGUUUACAAGGAUAUGUUGAUGAAACAUCAACAGAAGGUGUAAUGGACU [xclu_NG3_cac7] | – | – | 232 | 136 | –
CCAUAAAAGAUCCAAAAUUACAACAUGAGGAUCACCCAUGUGCAGGAUAUCGUGAAAGUAAAGUACGAGAAGGGCAGACACUGC [salish99_ExNG3_r2_008] | – | – | 139 | 154 | –
CCGAUGCAAAUAAAACAUGAGGAUCACCCAUGUGAGUCUCAUGAGGAUAUGCAGGUCUUUGACUUGCAGAAGGCAUGGCGUCGG [Mat - Same State NG 3 - JL Mod - D70] | – | – | – | – | apparent KD of MS2 coat protein (MS2 coat protein [3]; input ligand: FMN 200 uM): 138 nM; apparent KD of MS2 coat protein (MS2 coat protein [3]; input ligand: none): 1050 nM
GUAGCUAUCGGAGGAUAUUCAUAGCCGAGAGGCACAUGAGGAUCACCCAUGUGCGGAAACGCUUGGGAGAAGGCCGAUAGCUAC [Mat - Same State NG 2 - JL Mod - D77] | – | – | – | – | apparent KD of MS2 coat protein (MS2 coat protein [3]; input ligand: FMN 200 uM): 14.3 nM; apparent KD of MS2 coat protein (MS2 coat protein [3]; input ligand: none): 21.5 nM
AGAUGACAAAGUCAUCUCGCGCAGACAUGAGGAUCACCCAUGUAGGAUAUACUACUCAAAGAGUAGUAGAAGGACAUGUGUCUU [Ex NG2 #57] | – | – | 111 | 32.5 | –
